Drawing on WO2018102654A1 (dated 2018), this text covers Kd for 2 molecules.

In the test the target is gastric inhibitory polypeptide (GIP), species not stated. The test can be described thus: modified Schild's assay plot, reporter cell line expressing GIP receptors.
Chain of gastric inhibitory polypeptide (GIP), species not stated (P09681 52-93): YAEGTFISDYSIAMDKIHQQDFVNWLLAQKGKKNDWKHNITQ

B1: LC2/HC2 humanized antibody (antibody, V domains shown)
VH: QVQLVQSGAEVKKPGATVKISCKASGFNIRDYYLHWVQQAPGKGLEWMGWIDPENGDTEYAPKFQGRVTITADTSTNTAYMELSSLRSEDTAVYYCNVYGIYFMDYWGQGTMVTVSS
VL: DIQLTQSPSSVSASVGDRVTITCRASSSISSNSLHWYQQKPGKAPKLLIYRTSNLQSGVPSRFSGSGSGTDYTLTISSLQPEDFATYYCQQGSSFPRMLTFGQGTKLEIKR
notes: CHO supernate in the ELISA; Protein A purified in the neutralization assay; also called mAbH; GIP mAbH
Usually Kd stands for the constant that tells how readily two partners part at equilibrium. A high value points to weaker binding. Turning to B1, binding was characterised by a dissociation constant (Kd) of 2200 nM.

B2: 10g10 monoclonal antibody (original mouse mAb from hybridoma 10g10) (antibody, V domains shown)
VH: QVQLQESGAELVRSGASVKLSCTASGFNIRDYYLHWIKQRPEQGLEWIGWIDPENGDTEYAPKFQDKATVTADTSSNTAYLQLNSLTSEDTAVYYCNVYGIYFMDYWGQGTTVTVSS
VL: DIQLTQSPSTMAASPGEKITITCSASSSISSNSLHWYQQKPGFSPKLLIYRTSNLASGVPGRFSGSGSGTSYSLTIGTMETEDVATYYCQQGSSFPRMLTFGTGTKLEIKR
notes: Mouse antibody from a hybridoma; also called 10g10 mAb; 10g10 GIP mAb
As for B2, binding was characterised by a dissociation constant (Kd) of 3200 nM.
